Data: article PMC11145656 (Structure (London, England : 1993), 2023)

Legend:
Assay in all cases: BLI
SARS-CoV-1 RBD = SARS-CoV-1 RBD (SARS-CoV-1)
[1] = target: SARSr-CoV Rs4874-GCN S protein (Bat SARS-like coronavirus isolate Rs4874, strain)
[2] = target: SARSr-CoV Rs4231-T4 S protein (bat SARS-related CoV Rs4231)

Binder | binding result (SARS-CoV-1 RBD) | binding result [1] | binding result [2]
Ab246 IgG1 (antibody, V domains shown) VH: QVQLQESGPGLVKPSETLSLTCSVSGDSIGTYYWSWIRQSPEKGLEWIGYIHHSGKTNYNPSLKSRVTMSVDTSKNQFSLKLTSVTAADTAVYYCARSPIGYCSSTKCYIDKPFDSWGQGTLVTVSS VL: QAVLTQPSSLSASPGASASLTCTLRGGINVVNQRLYWYQQKPGSPPRFLLKYKSDSDNFLGSGVPSRFSGSKDASANAGILLISEVQSEDEADYYCMMWHSSAYVFGGGTKLTVL | binds | binds | –
CR3022 IgG1 (antibody, V domains shown) VH: EVQLVQSGTEVKKPGESLKISCKGSGYGFITYWIGWVRQMPGKGLEWMGIIYPGDSETRYSPSFQGQVTISADKSINTAYLQWSSLKASDTAIYYCAGGSGISTPMDVWGQGTTVTVSS VL: not shown | – | binds | binds
